In EP0629133B1, “PEPTIDE-METAL ION PHARMACEUTICAL APPLICATIONS” (Rhomed, Incorporated, priority 1992, dated 1993):
Where two headings read alike, the source gives them in different places. Ends that are not written are not given here.

Tests used:
[1] = design: species or system adult female Fischer 344 rats; conditions: rat, in vivo
Procedure: The clearance rates of the ^99mTc-IKVAV-containing peptide of Example 4 was evaluated in adult female Fischer 344 rats at 2 hours after injection. Each experimental group was composed of three animals. Each animal was anaesthetised with ketamine and the bile duct and bladder were cannulated. Blood was collected over various periods of time from the jugular vein.

[2] = design: species or system mice; conditions: mouse, in vivo
Procedure: Some studies involved pre-incubation of the ^99mTc-IKVAV-containing peptide in whole blood prior to injection and determination of biodistribution. In these studies, whole human blood was obtained from a healthy adult male donor and collected into Vacutainer tubes containing EDTA. After mixing to insure proper dissolution of the EDTA, approximately 2.5 ml of the whole blood was removed and mixed with 0.25 ml of ^99mTc-peptide. The mixture was allowed to incubate 30 minutes at room temperature. After 30 minutes, aliquots of 0.1 ml were injected into the tail vein of the mice. The amount of radioactivity in the circulation for ^99mTc-IKVAV-containing peptide pre-incubated in whole blood was higher than in animals receiving ^99mTc-IKVAV-containing peptide without incubation in blood.

[3] = freshly radiolabelled
[4] = design: species or system tight-skin (Tsk) mouse; conditions: mouse, in vivo
Text: Biodistribution was also studied in a lung disease model which used tight-skin mice with genetic emphysema. The tight-skin (Tsk) mouse is a genetic mutant caused by a dominant gene deficiency of serum anti-elastase. Heterozygous (Tsk/+) animals show multiple skin connective tissue abnormalities resembling scleroderma as well as an increased growth of cartilage, bone, and small tendons with hyperplasia of the tendon sheaths. The Tsk trait is associated with progressive pulmonary emphysema and development of right ventricular hypertrophy, as well as with lung collagen changes. These mice, as well as genetic control mice (pallid), were obtained from The Jackson Laboratory (Bar Harbor, ME). The relative localisation of ^99mTc-IKVAV-peptide of Example 4 at all time points examined (10, 30, and 120 minutes post-injection), was decreased in the lungs of animals with emphysema relative to paired control animals.

thromboembolism = assay: Diagnostic imaging of thrombosis in a patient (gamma scintigraphy or SPECT); format: in vivo; conditions: kit of Examples 12, 18, 19, or 20, i.v., imaged at 30 minute intervals
Procedure: A kit of Examples 12, 18, 19, or 20 is used in to localise thromboembolism in a patient. After radiolabelling with ^99mTc as in Example 13, the ^99mTc-YIGSR-peptide is injected intravenously. Starting immediately upon injection, the patient is imaged, using conventional gamma scintigraphy or SPECT imaging, and is imaged at 30 minute intervals thereafter.

platelets = assay: In vitro binding of 99mTc-YIGSR-containing peptide to platelets; format: cell-based, human; conditions: 90 minutes, approximately 10^7 platelets, 2 to 200 µg of radiolabelled peptide
Procedure: (§1) In other experiments, the peptide of Example 12, labelled as in Example 13, was used for in vitro binding studies. In these studies, the ^99mTc-YIGSR-containing peptide was incubated for 90 minutes with either 0.5 ml of whole blood clots, using from 0.4 to 50 µg of radiolabelled peptide, or with approximately 10^7 platelets, using from 2 to 200 µg of radiolabelled peptide.

[5] = Biodistribution after pre-incubation of 99mTc-YIGSR-peptide in whole human blood; format: in vivo, mice; conditions: pre-incubated 30 minutes in whole human blood, compared with no incubation in blood
Procedure: Some studies involved pre-incubation of the ^99mTc-YIGSR-peptide in whole blood prior to injection and determination of biodistribution (Table 7). In these studies, whole human blood was obtained from a healthy adult donor and collected into Vacutainer tubes containing EDTA. After mixing to insure proper dissolution of the EDTA, approximately 2.5 ml of the whole blood was removed and mixed with 0.25 ml of ^99mTc-YIGSR-peptide. The mixture was allowed to incubate 30 minutes at room temperature. After 30 minutes, aliquots of 0.1 ml were injected into the tail vein of the mice. The amount of radioactivity in the circulation for ^99mTc-YIGSR-peptide of Example 12 pre-incubated in whole blood was similar to that in animals receiving ^99mTc-YIGSR-peptide without incubation in blood.

whole blood clots = assay: In vitro binding of 99mTc-YIGSR-containing peptide to whole blood clots; format: cell-based, human; conditions: 90 minutes, 0.5 ml of whole blood clots, 0.4 to 50 µg of radiolabelled peptide
Procedure: as §1

[6] = Clearance rates of 99mTc-YIGSR-peptide (plasma, urine, bile; cannulated animals); format: in vivo, adult female Sprague-Dawley rats
Procedure: The clearance rates of the ^99mTc-YIGSR-peptide of Example 12 was evaluated in adult female Sprague-Dawley rats at 2 hours after injection. Each experimental group was composed of three animals. Each animal was anaesthetised with ketamine and the bile duct and bladder were cannulated. Blood was collected over various periods of time from the jugular vein. […] In biodistribution studies, the highest amount of radioactivity was found in the kidneys, and is consistent with the rat clearance data. No major accumulation of radioactivity was found in any organ examined (other than kidney), and at later times (2 and 4 hours post injection) no re-distribution of the radiolabel was noted.

[7] = Biodistribution of 99mTc-YIGSR-peptide after tail vein injection; format: in vivo, adult female Swiss-Webster mice; conditions: biodistribution studies
Procedure: The biodistribution of the ^99mTc-YIGSR-peptide of Example 12 was evaluated in adult female Swiss-Webster mice (approximately 19 g) at selected times (10, 30, and 120 minutes) after injection into the tail vein. Each experimental group was composed of at least five animals, with each animal receiving 0.1 ml containing 5 µg of peptide (1 µCi/µg). Animals were sacrificed by Halothane overdose, and selected organs dissected, weighed, and associated radioactivity determined. Data were analysed using a computer program specifically designed for ^99mTc-labelled preparations. The percent dose per organ for blood, bone, and muscle were calculated assuming 7, 8.2, and 40% of total body weight, respectively, for these tissues.

For “CSRARKQAASIKVAVSADR [^99mTc-IKVAV-containing peptide]”, the bile clearance [1] was 0.9 ± 0.3%, the “clearance rate from the plasma” value [1] was 2.4 mL/min and the “injected dose cleared through urine” value [1] was 10.8 ± 4.9%. For the same substance, the “amount of radioactivity in the circulation” value [2] was “higher”, the lung uptake [2] was “significantly decreased” and the “particles under a phase contrast microscope” value [3] was “No particles were visible”. The “relative localisation in the lungs” value [4] was “decreased”.
In the case of H-CDPGYIGSR [^99mTc-YIGSR-peptide], the “appearance of sites of thromboembolism by scintigraphy” value (thromboembolism) is reported as “photon-rich image locations”, the binding to platelets (platelets) is reported as “dose-response relationship” and the “amount of radioactivity in the circulation” value [5] is reported as “similar”. The “binding to whole blood clots” value (whole blood clots) was “dose-response relationship”, the bile clearance ([6]; at two hours) was 6.9 ± 0.3% and the “injected doses cleared through urine” value ([6]; at two hours) was 31.2 ± 9.1%. For the same substance, the “clearance rate from the plasma” value ([6]; rats) was 2.6 mL/min and the “organ with the highest amount of radioactivity” value [7] was “kidneys”.
